Results as given in patent publication US20240166765A1 (ICONIC THERAPEUTICS, published 2024).
Positions count from the first letter of the chain named.

Experiments:
[1] = target: T1, human Tissue Factor (hTF), endogenously expressed on human TF-positive cells (human, UniProt P13726 33-295); assay: cell-based or functional assay
[2] = target: T1, human Tissue Factor (hTF), endogenously …; assay: flow cytometry competition on A431 cells, 100 nM unlabelled antibody, competitor 20 nM 25A-Alexa488
[3] = target: T2, Macaca mulatta TF on RF/6A cells (Macaca mulatta, UniProt P13726 33-294 (human entry)); assay: flow cytometry on Macaca mulatta RF/6A cells
T2 construct: also called TF-positive Macaca mulatta RF/6A cells; cynomolgus TF (cTF)
T2 chain: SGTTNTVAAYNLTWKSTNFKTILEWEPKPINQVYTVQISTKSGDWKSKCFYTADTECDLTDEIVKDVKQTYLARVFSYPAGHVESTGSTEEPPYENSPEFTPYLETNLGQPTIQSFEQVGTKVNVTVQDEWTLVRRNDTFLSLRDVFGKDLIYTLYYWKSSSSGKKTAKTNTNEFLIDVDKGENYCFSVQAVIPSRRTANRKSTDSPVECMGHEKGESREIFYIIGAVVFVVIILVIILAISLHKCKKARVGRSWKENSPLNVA

[4] = target: T3, Expi293-derived human TF ECD-His6 (TF-His) (human, UniProt P13726 33-251); assay: protein ELISA, plate coated with Expi293-derived TF-His
T3 construct: Glycosylated TF ECD-His6 made in Expi293 cells and coated on ELISA plates; also called Expi293-derived TF protein

[5] = target: T1, human Tissue Factor (hTF), endogenously …; assay: flow cytometry competition on A431 cells, 100 nM unlabelled antibody, competitor 20 nM 43Ea-Alexa488
[6] = target: T4, E. coli-derived TF ECD-His6 (Homo sapiens (Human), UniProt P13726 33-251); assay: protein ELISA, plate coated with E. coli-derived TF-His
T4 construct: The OmpA signal is not part of that entry; also called E.coli-derived TF protein; E. coli-derived TF-His

[7] = target: T5, human Tissue Factor on MDA-MB-231 cells (human, UniProt P13726 33-295); assay: flow cytometry, MDA-MB-231 cells; binding of 20 nM FVII-Fc-Alexa488 (competitor) left at 250 nM Ab
T5 construct: also called TF; hTF

[8] = target: T5, human Tissue Factor on MDA-MB-231 cells; assay: flow cytometry, MDA-MB-231 cells; binding of 20 nM FVII-Fc-Alexa488 (competitor) left at 9.25 nM Ab
Relipidated TF = Relipidated TF (UniProt P13726 33-295, limits assumed); assay: cell-based or functional assay
[9] = target: T5, human Tissue Factor on MDA-MB-231 cells; assay: cell-based or functional assay
[10] = target: T5, human Tissue Factor on MDA-MB-231 cells; assay: flow cytometry, MDA-MB-231 cells; binding of 20 nM FVII-Fc-Alexa488 (competitor) left at 83 nM Ab
[11] = target: T5, human Tissue Factor on MDA-MB-231 cells; assay: flow cytometry, MDA-MB-231 cells; binding of 20 nM FVII-Fc-Alexa488 (competitor) left at 28 nM Ab

B1: anti-TF antibody 25A (antibody, human IgG1, V domains shown)
VH: QVQLVQSGAEVKKPGASVKVSCKASGYTFDVYGISWVRQAPGQGLEWMGWIAPYNGNTNYAQKLQGRVTMTTDTSTSTAYMELRSLRSDDTAVYYCARDAGTYSPFGYGMDVWGQGTTVTVSS
VL: DIQMTQSPSTLSASVGDRVTITCRASQSISSWLAWYQQKPGKAPKLLIYKASSLESGVPSRFSGSGSGTEFTLTISSLQPDDFATYYCQQFQSLPPFTFGGGTKVEIK
notes: Human IgG1
% GM-CSF, 2.56 nM antibody, MDA-MB-231 cells + FVIIa [1]: 57% | % GM-CSF, 6.4 nM antibody, MDA-MB-231 cells + FVIIa [1]: 24% | % GM-CSF, 16 nM antibody, MDA-MB-231 cells + FVIIa [1]: 22% | % GM-CSF, 40 nM antibody, MDA-MB-231 cells + FVIIa [1]: 19% | % GM-CSF, 100 nM antibody, MDA-MB-231 cells + FVIIa [1]: 22% | % 25A binding [2]: 3% | EC50 [3]: 0.43 nM | EC50 [4]: 0.54 nM | % 43Ea binding [5]: 1% | EC50 [6]: 0.35 nM

B2: anti-TF antibody 25G (antibody, human IgG1, kappa, V domains shown)
VH: B1 VH with D30R, V31S, I51V, F106Y
VL: DIQMTQSPSTLSASVGDRVTITCRASQSISSWLAWYQQKPGKAPKLLIYKASSLESGVPSRFSGSGSGTEFTLTISSLQPDDFATYYCQQFQSLPPFTFGGGTKVEIKR
notes: Human IgG1
% GM-CSF, 2.56 nM antibody, MDA-MB-231 cells + FVIIa [1]: 77% | % GM-CSF, 6.4 nM antibody, MDA-MB-231 cells + FVIIa [1]: 39% | % GM-CSF, 16 nM antibody, MDA-MB-231 cells + FVIIa [1]: 32% | % GM-CSF, 40 nM antibody, MDA-MB-231 cells + FVIIa [1]: 18% | % GM-CSF, 100 nM antibody, MDA-MB-231 cells + FVIIa [1]: 19% | % 25A binding [2]: 7% | % 43Ea binding [5]: 3%

B3: anti-TF antibody 25G1 (antibody, human IgG1, kappa, V domains shown)
VH: B1 VH with D30R, V31S, I51V, N55S, F106Y
VL: B2 VL with Q27H, S30D, S53Y, Q90L
notes: Human IgG1
% GM-CSF, 2.56 nM antibody, MDA-MB-231 cells + FVIIa [1]: 48% | EC50 [3]: 0.27 nM | EC50 [4]: 0.42 nM | EC50 [6]: 0.31 nM

B4: anti-TF antibody 29E (antibody, human IgG1, V domains shown)
VH: QVQLVESGGGVVQPGRSLRLSCAASGFTFRSYGMHWVRQAPGKGLEWVAVITYDGINKYYADSVEGRFTISRDNSKNTLYLQMNSLRAEDTAVYYCARDGVYYGVYDYWGQGTLVTVSS
VL: not shown
notes: Human IgG1
% GM-CSF, 2.56 nM antibody, MDA-MB-231 cells + FVIIa [1]: 33% | % GM-CSF, 6.4 nM antibody, MDA-MB-231 cells + FVIIa [1]: 9% | % GM-CSF, 16 nM antibody, MDA-MB-231 cells + FVIIa [1]: 5% | % GM-CSF, 40 nM antibody, MDA-MB-231 cells + FVIIa [1]: 6% | % GM-CSF, 100 nM antibody, MDA-MB-231 cells + FVIIa [1]: 6% | % 25A binding [2]: 96% | EC50 [3]: 0.53 nM | EC50 [4]: 0.98 nM | % 43Ea binding [5]: 85% | EC50 [6]: 0.68 nM

B5: 1F (antibody, V domains shown)
VH: EVQLLESGGGLVQPGGSLRLSCAASGFTFSDYAMGWVRQAPGKGLEWVSTISGSGGLTYYADSVKGRFTISRDNSKNTLYLQMNSLRAEDTAVYYCAKAPYGYYMDVWGKGTTVTVSS
VL: not shown
notes: Human anti-TF IgG1
% FVIIa [7]: 6% | % FVIIa [8]: 7% | TGA % ETP, 10 nM Ab, 10 min pre-incubation (Relipidated TF): 31% | TGA % Peak IIa, 10 nM Ab, 10 min pre-incubation (Relipidated TF): 10% | TGA % Peak IIa, 50 nM Ab, 10 min pre-incubation (Relipidated TF): 7% | TGA % Peak IIa, 100 nM Ab, 10 min pre-incubation (Relipidated TF): 7% | TGA ETP, 10 nM Ab, 10 min pre-incubation (Relipidated TF): 540 nM·min | TGA Lag Time, 10 nM Ab, 10 min pre-incubation (Relipidated TF): 18.8 min | TGA Lag Time, 50 nM Ab, 10 min pre-incubation (Relipidated TF): 27.6 min | TGA Lag Time, 100 nM Ab, 10 min pre-incubation (Relipidated TF): 30.3 min | TGA Peak IIa, 10 nM Ab, 10 min pre-incubation (Relipidated TF): 27 nM | TGA Peak IIa, 50 nM Ab, 10 min pre-incubation (Relipidated TF): 20 nM | TGA Peak IIa, 100 nM Ab, 10 min pre-incubation (Relipidated TF): 17 nM | TGA ttPeak, 10 nM Ab, 10 min pre-incubation (Relipidated TF): 28.6 min | TGA ttPeak, 50 nM Ab, 10 min pre-incubation (Relipidated TF): 38.9 min | TGA ttPeak, 100 nM Ab, 10 min pre-incubation (Relipidated TF): 42 min | % IL8, 2.56 nM Ab [9]: 18% | % IL8, 6.4 nM Ab [9]: 3% | % IL8, 16 nM Ab [9]: 2% | % IL8, 40 nM Ab [9]: 2% | % IL8, 100 nM Ab [9]: 2% | % FVIIa [10]: 7% | % FVIIa [11]: 7%

B6: anti-TF antibody 1F (antibody, human IgG1, V domains shown)
VH: B5 VH
VL: not shown
notes: Human IgG1
% GM-CSF, 2.56 nM antibody, MDA-MB-231 cells + FVIIa [1]: 27% | % GM-CSF, 6.4 nM antibody, MDA-MB-231 cells + FVIIa [1]: 8% | % GM-CSF, 16 nM antibody, MDA-MB-231 cells + FVIIa [1]: 6% | % GM-CSF, 40 nM antibody, MDA-MB-231 cells + FVIIa [1]: 6% | % GM-CSF, 100 nM antibody, MDA-MB-231 cells + FVIIa [1]: 6% | % 25A binding [2]: 95% | EC50 [3]: 0.17 nM | EC50 [4]: 0.41 nM | % 43Ea binding [5]: 77% | EC50 [6]: 0.32 nM
